Assay results reported in publication PMC6303017, “Effects of RNA structure and salt concentration on the affinity and kinetics of interactions between pentatricopeptide repeat proteins and their RNA ligands”.

Assays:
PPR10 [1] = target: T1, PPR10 (UniProt B8Y6I0 96-786); test: SPR; 150 mM NaCl; ka ~2e7 M-1s-1; EMSA: 40 mM Tris-HCl pH 7.5, 140 mM NaCl, 10% glycerol, 4 mM DTT, 0.1 mg/mL BSA, 0.5 mg/mL heparin, RNAsin, 5 pM RNA, 25 C, 30 min; SPR: 100 mM HEPES pH 7.5, 150 mM NaCl, 3 mM EDTA, 1 mM 2-mercaptoethanol, 0.005% P20; conditions: protein: recombinant; tags: MBP fusion, MBP cleaved off; label: 3' biotin, 6-carbon linker; unstructured
T1 sequence: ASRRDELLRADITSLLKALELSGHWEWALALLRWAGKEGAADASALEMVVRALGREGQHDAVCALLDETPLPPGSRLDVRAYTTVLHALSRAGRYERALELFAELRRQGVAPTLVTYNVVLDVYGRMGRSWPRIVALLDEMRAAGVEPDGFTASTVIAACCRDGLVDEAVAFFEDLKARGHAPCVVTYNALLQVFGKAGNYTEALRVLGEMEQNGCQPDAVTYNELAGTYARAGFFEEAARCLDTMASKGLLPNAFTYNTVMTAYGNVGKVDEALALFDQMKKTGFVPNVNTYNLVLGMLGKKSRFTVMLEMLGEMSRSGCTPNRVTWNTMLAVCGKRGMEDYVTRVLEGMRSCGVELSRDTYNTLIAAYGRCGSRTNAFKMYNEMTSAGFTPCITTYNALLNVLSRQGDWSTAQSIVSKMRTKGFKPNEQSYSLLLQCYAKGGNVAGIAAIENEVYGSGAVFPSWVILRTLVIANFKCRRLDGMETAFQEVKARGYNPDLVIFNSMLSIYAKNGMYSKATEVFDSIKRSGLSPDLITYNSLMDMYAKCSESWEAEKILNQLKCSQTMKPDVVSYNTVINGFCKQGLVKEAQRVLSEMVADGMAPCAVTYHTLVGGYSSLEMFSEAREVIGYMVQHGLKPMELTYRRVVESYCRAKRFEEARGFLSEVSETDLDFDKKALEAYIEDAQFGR

PPR10 [2] = target: T1, PPR10; test: EMSA; 0.5 mg/mL heparin, 140 mM NaCl; EMSA: 40 mM Tris-HCl pH 7.5, 140 mM NaCl, 10% glycerol, 4 mM DTT, 0.1 mg/mL BSA, 0.5 mg/mL heparin, RNAsin, 5 pM RNA, 25 C, 30 min; SPR: 100 mM HEPES pH 7.5, 150 mM NaCl, 3 mM EDTA, 1 mM 2-mercaptoethanol, 0.005% P20; conditions: protein: recombinant; tags: MBP fusion, MBP cleaved off; label: 5' 32P; unstructured
HCF152 [3] = target: T2, HCF152 (UniProt Q9SF38 66-778); test: filter binding; 30 min and overnight (~13 h); tighter apparent KD overnight; EMSA: 40 mM Tris-HCl pH 7.5, 140 mM NaCl, 10% glycerol, 4 mM DTT, 0.1 mg/mL BSA, 0.5 mg/mL heparin, RNAsin, 5 pM RNA, 25 C, 30 min; SPR: 100 mM HEPES pH 7.5, 150 mM NaCl, 3 mM EDTA, 1 mM 2-mercaptoethanol, 0.005% P20; conditions: protein: recombinant; tags: MBP fusion, MBP cleaved off; label: 5' 32P
T2 sequence: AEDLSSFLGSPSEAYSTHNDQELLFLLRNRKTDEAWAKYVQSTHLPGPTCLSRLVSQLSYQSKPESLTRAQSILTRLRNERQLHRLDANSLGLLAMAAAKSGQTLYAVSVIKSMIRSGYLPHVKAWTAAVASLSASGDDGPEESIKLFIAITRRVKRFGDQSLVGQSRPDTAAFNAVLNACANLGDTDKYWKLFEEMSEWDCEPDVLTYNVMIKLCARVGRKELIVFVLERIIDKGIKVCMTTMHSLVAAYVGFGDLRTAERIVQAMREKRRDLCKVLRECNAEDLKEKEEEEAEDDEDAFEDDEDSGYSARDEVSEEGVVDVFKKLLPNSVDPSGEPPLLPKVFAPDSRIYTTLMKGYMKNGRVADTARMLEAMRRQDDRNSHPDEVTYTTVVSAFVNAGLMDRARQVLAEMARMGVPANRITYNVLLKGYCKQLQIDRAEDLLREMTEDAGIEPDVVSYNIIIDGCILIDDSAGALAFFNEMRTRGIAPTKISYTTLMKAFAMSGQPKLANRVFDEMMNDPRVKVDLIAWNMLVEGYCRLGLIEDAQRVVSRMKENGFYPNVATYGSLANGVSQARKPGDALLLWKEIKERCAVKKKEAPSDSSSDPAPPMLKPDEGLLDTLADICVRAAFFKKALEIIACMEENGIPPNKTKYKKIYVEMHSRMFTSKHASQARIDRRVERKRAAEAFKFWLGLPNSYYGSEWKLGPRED

HCF152 [4] = target: T2, HCF152; test: SPR; 150 mM NaCl; half-life ~2 h; KD ~30-fold lower than earlier EMSA; EMSA: 40 mM Tris-HCl pH 7.5, 140 mM NaCl, 10% glycerol, 4 mM DTT, 0.1 mg/mL BSA, 0.5 mg/mL heparin, RNAsin, 5 pM RNA, 25 C, 30 min; SPR: 100 mM HEPES pH 7.5, 150 mM NaCl, 3 mM EDTA, 1 mM 2-mercaptoethanol, 0.005% P20; conditions: protein: recombinant; tags: MBP fusion, MBP cleaved off; label: 3' biotin, 6-carbon linker

B1: atpH SPR RNA (ssRNA)
RNA: GAUUGUAUCCUUAACCAUUUCUUUU
- Kd (PPR10 [1]): ~0.01 nM

B2: atpH-23mer (ssRNA)
RNA: AUUGUAUCCUUAACCAUUUCUUU
- Kd (PPR10 [2]): ~0.05 nM

B3: petB RNA (GMS/FB) (ssRNA)
RNA: GGUAGUUCGACCGUGGA
- binding result (HCF152 [3]): binds

B4: petB SPR RNA (ssRNA)
RNA: UGGUAGUUCGACGUGGAUUUU
- binding result (HCF152 [4]): binds
